Molecular target: T1, extracellular domain of the recombinant protein NRP-1 from RnD systems (human, UniProt O14786 22-856)
T1 construct: Bought extracellular domain
Test: Bio-layer interferometry (BLI), synthetic peptide and recombinant NRP-1 extracellular domain
Method: Ligands preparation: proteins were incubated in a PBS buffer with a 1:3 ratio molar ratio of biotin (biotin-PEG4-NHS from Pierce EZ kit, prepared following the manufacturer's instructions). Free biotin was removed using a desalting column (Pierce). The biotinylated protein (called ligand) was immobilized onto streptavidin biosensor tips and dipped into wells containing the buffer with the analyte of interest (association) or without (dissociation).
From the best consensus mode, peptide sequences SEQ ID NO:3 for leptin and SEQ ID NO:4 for NRP-1 have been identified (FIG. 2). The Leptin (OB) binding domain (SEQ ID:3) to NRP-1 (SEQ ID:2) was validated by BLI using a synthetized peptide (SEQ ID:3) and the extracellular domain of the recombinant protein NRP-1 from RnD systems (FIG. 3).

T1 sequence (O14786 22-856 V179A limits assumed): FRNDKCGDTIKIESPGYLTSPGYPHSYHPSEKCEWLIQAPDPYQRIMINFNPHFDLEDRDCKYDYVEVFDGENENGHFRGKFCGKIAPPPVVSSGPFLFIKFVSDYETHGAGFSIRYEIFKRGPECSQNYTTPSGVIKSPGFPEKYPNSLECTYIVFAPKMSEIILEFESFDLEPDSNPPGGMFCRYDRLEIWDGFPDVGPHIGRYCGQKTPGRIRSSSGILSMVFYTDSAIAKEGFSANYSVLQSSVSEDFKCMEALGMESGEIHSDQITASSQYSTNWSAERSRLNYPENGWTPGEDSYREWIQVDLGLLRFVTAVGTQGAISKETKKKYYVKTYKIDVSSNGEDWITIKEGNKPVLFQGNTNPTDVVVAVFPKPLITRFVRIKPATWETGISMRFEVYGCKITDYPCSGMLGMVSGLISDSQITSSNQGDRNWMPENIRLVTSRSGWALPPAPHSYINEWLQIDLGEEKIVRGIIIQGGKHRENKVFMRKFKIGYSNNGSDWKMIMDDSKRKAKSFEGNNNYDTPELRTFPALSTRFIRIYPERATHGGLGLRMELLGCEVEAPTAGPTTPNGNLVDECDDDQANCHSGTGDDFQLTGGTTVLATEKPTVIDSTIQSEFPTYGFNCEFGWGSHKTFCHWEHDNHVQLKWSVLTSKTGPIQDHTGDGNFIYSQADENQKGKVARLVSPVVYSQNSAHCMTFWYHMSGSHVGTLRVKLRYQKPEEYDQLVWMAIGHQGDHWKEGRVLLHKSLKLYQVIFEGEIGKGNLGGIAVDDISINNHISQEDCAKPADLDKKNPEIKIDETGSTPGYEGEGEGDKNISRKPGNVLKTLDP

B1: synthetized leptin (OB) peptide SEQ ID NO:3 (peptide)
peptide: ENLRDLLHVLAFSKSCHLPWASGLETL
notes: Synthetic peptide derived from leptin, identified by docking and then tested by BLI
**Q.** Does B1 bind?
**A.** Result: binds
